{
  "source": "paper doi:10.1101/2020.01.16.909523",
  "about": "(bioRxiv, 2020)",
  "target": "PE5mt-PPE4mt heterodimer (His6 tag cleaved) (Mycobacterium tuberculosis, UniProt L7N695 1-102; P9WI43 1-180)",
  "sequence (L7N695 whole entry, chain 1 of 2)": "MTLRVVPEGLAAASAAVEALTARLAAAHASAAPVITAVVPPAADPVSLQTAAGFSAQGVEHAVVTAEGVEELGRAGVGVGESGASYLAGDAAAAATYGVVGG",
  "sequence (P9WI43 1-180, chain 2 of 2)": "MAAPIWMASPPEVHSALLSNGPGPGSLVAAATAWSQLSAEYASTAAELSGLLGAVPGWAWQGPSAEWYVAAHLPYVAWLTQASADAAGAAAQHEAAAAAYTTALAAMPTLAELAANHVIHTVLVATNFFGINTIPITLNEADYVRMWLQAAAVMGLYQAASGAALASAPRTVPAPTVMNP",
  "experiment": "SEC-MALS",
  "data": [
    {"binder": "EspG3mm (natural protein) MESMPNAVELTVENAWFIAEMVGAGTFPWVLAITTPYSDEAQRSAFFARQRDELTQLGLLSSDGVVNPAVAEWIKVVCFPERWLDLRYVGPGTGNGGEDLLRGIVAQSAGIMGKAGKAHPSFNTVVALRNAQLVTFTAMDIDDPRALVPVLGVGLSARPPARFEEFSMPMRVGARADERLRSGESLDEVLDYLGIPVSARPVVQAVFSGPRSYVEIVAGCNRDGEHTTTDVGLSIVDTTAGRVLVSPSRAFDGEWVSTFSAGTPFATAVAIDQLIANLPDGQWFPGQRLSRDFSSQPS", "values": [
      {"measurement": "stoichiometry N", "value": 1}
    ]}
  ]
}
